{
  "source": "paper PMC10440358",
  "about": "(Biochemistry and Biophysics Reports, 2023)",
  "proteins": {"B1": {"name": "NΔ150-hTPH2 A328E (domain or fragment)", "chain": "not shown"}, "B2": {"name": "NΔ150-hTPH2 A328V (domain or fragment)", "chain": "not shown"}, "B3": {"name": "Human tryptophan hydroxylase 2, full-length wild type (enzyme, UniProt Q8IWU9 1-490, looked up)", "chain": "MQPAMMMFSSKYWARRGFSLDSAVPEEHQLLGSSTLNKPNSGKNDDKGNKGSSKREAATESGKTAVVFSLKNEVGGLVKALRLFQEKRVNMVHIESRKSRRRSSEVEIFVDCECGKTEFNELIQLLKFQTTIVTLNPPENIWTEEEELEDVPWFPRKISELDKCSHRVLMYGSELDADHPGFKDNVYRQRRKYFVDVAMGYKYGQPIPRVEYTEEETKTWGVVFRELSKLYPTHACREYLKNFPLLTKYCGYREDNVPQLEDVSMFLKERSGFTVRPVAGYLSPRDFLAGLAYRVFHCTQYIRHGSDPLYTPEPDTCHELLGHVPLLADPKFAQFSQEIGLASLGASDEDVQKLATCYFFTIEFGLCKQEGQLRAYGAGLLSSIGELKHALSDKACVKAFDPKTTCLQECLITTFQEAYFVSESFEEAKEKMRDFAKSITRPFSVYFNPYTQSIEILKDTRSIENVVQDLRSDLNTVCDALNKMNQYLGI"}, "B4": {"name": "Human tryptophan hydroxylase 2, full-length A328V variant (rs2887147) (enzyme, UniProt Q8IWU9 1-490, looked up)", "chain": "B3 chain with A328V"}, "B5": {"name": "NΔ150-hTPH2, wild type (human tryptophan hydroxylase 2 lacking the N-terminal 150 amino acid regulatory domain) (domain or fragment)", "chain": "not shown"}},
  "target": "the molecule itself",
  "assay": "SEC",
  "note": "Residue numbers refer to the chain shown, from its start. Numbers in names are those of the source.",
  "data": [
    {"protein": "B1", "values": [
      {"measurement": "stoichiometry N", "result": 4}
    ]},
    {"protein": "B2", "values": [
      {"measurement": "stoichiometry N", "result": 4}
    ]},
    {"protein": "B3", "values": [
      {"measurement": "stoichiometry N", "result": 4}
    ]},
    {"protein": "B4", "values": [
      {"measurement": "stoichiometry N", "result": 4}
    ]},
    {"protein": "B5", "values": [
      {"measurement": "stoichiometry N", "result": 4}
    ]}
  ]
}
